We go through 1 protein from patent US20260055150.

For data set [1], the target named is wild type p53 (bacterially purified, commercial), P04637.
Data set [2] addresses mutant p53 (bacterially purified, commercial), P04637.

B1: GRAIL C-terminal fragment (amino acids 229-428), recombinant (protein)
chain: YSARRLRNARAQSRKQRQLKADAKKAIGRLQLRTLKQGDKEIGPDGDSCAVCIELYKPNDLVRILTCNHIFHKTCVDPWLLEHRTCPMCKCDILKALGIEVDVEDGSVSLQVPVSNEISNSASSHEEDNRSETASSGYASVQGTDEPPLEEHVQSTNESLQLVNHEANSVAVDVIPHVDNPTFEEDETPNQETAVREIKS
Consider B1, for which the “in vitro ubiquitination assay (UBE1, UBCH5, Myc-tagged ubiquitin), immunoblot” value in data set [1] and in data set [2] was “a C-terminal RF containing GRAIL fragment is efficient in polyubiquitinating mutant p53 as compared to wild type protein” in each case.
